Measurements reported in patent US20250355001A1, “METHOD FOR DETECTING A TAU PROTEIN FRAGMENT IN A SAMPLE” (GTINVENT LIMITED, priority 2022, published 2025).

B1: S1D12: sheep-derived anti-tau core clone; scFv SEQ ID NO: 32, VH 443, VL 444 (protein)
scFv: QVQLQESGPSLVKPSQTLSLTCTVSGFSLNNNAVGWVRQAPGKVPESLVGCSSDGTCYYNSALKSRLDITRDTSKNQISLSLSSVTTDDAAVYYCTRGHYSIYGYDYLGTIDYWGPGLLVTVSSEGKSSGASGESKVDDQAVLTQPSSVSGSLGQRVSITCSGSSSNVGGGNSVGWYQHLPGSGLKTIIYDTNSRPSGVPDRFSGSRSGNTATLTINSLQAEDEGDYYCVTGDSTTHDDLVGSGTRLTVLG
modifications: S1D12 amino acid sequence
B2: CE2: anti-tau core clone, Table 10; SEQ ID NO: 366 (protein)
scFv: QVQLQESGPSLVKPSQTLSLTCTVSGFSLTNYPVGWVRQAPGKALEWIGNIENDGSANYASALKSRLSITRDTSKNQVSLSLSSATTEDTAVYYCGREFGGSDGYTYFVDIDYWGPGLLVTVSSEGKSSGASGESKVDDQAVLTQPSSVSKSLGQSVSITCSGSSSNVGYGNYVSWFQQVPGSAPKILIYGATSRASGVPDRFSGSRSGNTATLTITSLQAEDEADYYCASYDGSSSGVFGSGTRLTVLG
modifications: CE2/E1B8 amino acid sequence
B3: S1G2: sheep-derived anti-tau core clone; scFv SEQ ID NO: 81, VH 455, VL 456 (protein)
scFv: QVQLQESGPSLVKPSQTLSLTCTVSGFSLTSNSVGWVRQAPGKAPEWVAGIDTDGEEGYNPALNSRLSITRDTSKSQVSLSLSSVTSEDTAVYYCGRSYRADGLAYGYVQAIDYWGPGLLVTVSSEGKSSGASGESKVDDQAVVTQPSSVSGSLGQRVSITCSGSFIGISSVGWFQQLPGSGLRTIIVASDGRPSGVPDRFSMSKSGNTATLTISSLQAEDEADYFCGSSDRTPYTGVFGSGTRLTVLG
modifications: S1G2 amino acid sequence

Tests used:
Assay type in all cases: binding
[1] = target: T1, hT40 (T441, SEQ ID NO: 1) (Homo sapiens, UniProt P10636); assay: Biacore X100 SPR kinetics of scAbs for hT40; conditions: Table 23; scAb captured, T441 (hT40) analyte; 1:1 model
T1 construct: Full length tau (hT40)
How it was run: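 Captured scAb on anti-HuCk CM5 surface (flow cell 1 as reference) in HBS-EP+, capture set for theoretical RMax 100 RU; hT40 injected multi-cycle (0.15625–100 nM) or single-cycle (6.25–100 nM), 120 s association, 420 s dissociation, glycine pH 2.0 regeneration. Kinetics and affinity from 1:1 binding model fit.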

dGA (SEQ ID NO: 5) = dGA (SEQ ID NO: 5) (Homo sapiens, UniProt P10636); assay: Biacore X100 SPR kinetics of scAbs for dGA; conditions: Table 24, scAb, dGA analyte; for Kd: dissociation rate
Method: Surface plasmon resonance (SPR) is widely regarded as the gold standard for real time measurement of protein-protein interactions such as antibody binding. All SPR experiments were carried out using a Biacore X100 machine and HBS EP+ running buffer (GE Healthcare). A ‘capture’ method was followed for affinity measurements, where an anti-human constant kappa chain (HuCk) antibody was conjugated to the surface of a CM5 sensor chip using an amine coupling kit and scAb molecules were immobilised via their HuCk domain. Amine coupling is a very common approach for immobilising the ligand to the chip surface. The chip surface has a dextran matrix derivatised with carboxyl groups, which after activation with N-hydroxysuccinimide (NHS) and 1-ethyl-3-(3-dimethylaminopropyl) carbodiimide (EDC), form reactive succinimide esters which allows the covalent capturing of the ligand via any available primary amine groups (e.g. Lysine) on the ligand (in this case anti-HuCk antibody). The capture antibody was diluted 1/100 in 10 mM Sodium acetate buffer pH 5.0 and passed over the activated chip surface for a period of at least 420 s. Final ligand immobilisation levels over 12,000 RU were deemed to be satisfactory.
Following immobilisation, the level of each scAb to be captured was identified using the standard SPR equation with a theoretical RMax of 100 RU. Analyte MW refers to the molecular weight of hT40 or dGA/dGAE molecules, while ligand MW refers to the molecular weight of the scAbs tested. RL is the desired capture level and S refers to the stoichiometric ratio:
The scAb to be tested was added only to flow cell 2 so that flow cell 1 could act as a control to subtract any interaction with the analyte and the chip surface. Both single and multi-cycle runs were utilised using wizards developed in the Biacore X100 control software which are both accepted methods of kinetic analysis (Karlsson, R., et al. Analyzing a kinetic titration series using affinity biosensors (2006) Analytical Biochemistry 349:136-47). The multi-cycle protocol was as follows-Three start-up cycles composed of an initial capture, to the desired level, of the scAb to be tested was performed followed by a 30 s injection of glycine buffer pH 2.0 after each cycle to regenerate the chip surface. The regeneration step removed any captured scAb whilst leaving the capture antibody intact and able to repeat the capture for the next cycle. Following three start-up cycles increasing concentrations (0.15625 nM-100 nM) of the target to be tested were added to the chip surface after the desired scAb capture. The target was added for a 120 s association period and 420 s dissociation period followed by another regeneration, 30 s injection of glycine buffer pH 2.0 in between each cycle.
The single cycle kinetics protocol was similar and utilised the same level of scAb capture. Three start-up cycles were used followed by 5 increasing concentrations of the analyte (6.25 nM-100 nM) for an association period of 120 s followed by a dissociation period of 420 s for each concentration. In single cycle kinetics the regeneration step was performed only after the final analyte concentration was added. Binding responses were analysed in Biacore X100 evaluation software and data fitted to a 1:1 binding model to obtain kinetic and affinity characterisation.

htau40 = target: T2, htau40 (Homo sapiens, UniProt P10636); assay: Biacore X100 SPR kinetics of anti-tau mAbs on immobilised htau40
T2 construct: Full length tau (hT40)
How it was run: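 Htau40 amine-coupled to CM5 chip (~250 RU, pH 4.0 immobilisation), reference flow cell subtracted; mAb injected at 0.78–25 nM in HBS-EP+, 120 s association, 600 s dissociation, glycine pH 1.5 regeneration. Kinetic and affinity constants from 1:1 binding model fit.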

[2] = Table 27, mAb format, immobilised htau40
[3] = second Table 25, newly converted mAbs, hT40

dGA (SEQ ID NO: 5), sequence (P10636 614-707): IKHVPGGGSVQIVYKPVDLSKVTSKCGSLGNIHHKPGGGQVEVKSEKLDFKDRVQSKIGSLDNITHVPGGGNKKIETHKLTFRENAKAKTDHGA
T2 sequence (P10636 1-441 isoform P10636-8): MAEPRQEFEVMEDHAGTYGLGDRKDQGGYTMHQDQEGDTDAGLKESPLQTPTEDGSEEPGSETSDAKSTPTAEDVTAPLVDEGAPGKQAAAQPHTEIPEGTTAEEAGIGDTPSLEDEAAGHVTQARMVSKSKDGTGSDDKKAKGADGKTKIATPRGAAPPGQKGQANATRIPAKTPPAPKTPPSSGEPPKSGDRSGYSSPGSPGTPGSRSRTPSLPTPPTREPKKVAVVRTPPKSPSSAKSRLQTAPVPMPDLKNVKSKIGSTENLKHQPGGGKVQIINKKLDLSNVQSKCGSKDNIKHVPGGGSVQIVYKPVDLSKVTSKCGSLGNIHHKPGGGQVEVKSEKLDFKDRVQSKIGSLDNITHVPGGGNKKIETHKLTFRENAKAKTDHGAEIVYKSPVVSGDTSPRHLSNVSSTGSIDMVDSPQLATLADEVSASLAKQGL
T1 sequence (P10636 1-441 isoform P10636-8): as above

Molecule	ka [1] [M⁻¹ s⁻¹]	kd [1] [s⁻¹]	ka (dGA (SEQ ID NO: 5)) [M⁻¹ s⁻¹]	Kd (dGA (SEQ ID NO: 5)) [s⁻¹]	ka (htau40; [2]) [M⁻¹ s⁻¹]	kd (htau40; [2]) [s⁻¹]	Kd (htau40; as quoted in Example 32, read-out: affinity) [nM]	ka (htau40; [3]) [M⁻¹ s⁻¹]	kd (htau40; [3]) [s⁻¹]
B1	1.252e+06	0.00015	1.21e+06	0.000418	405800	4.093e-05	0.12		
B2	213700	0.001077	137000	0.00242	457900	0.005218		323800	0.001367
B3	1.057e+06	0.00018	783000	0.0003499	339800	4.748e-05			
